Measured values published in patent publication US20160090427A1 (SAMSUNG ELECTRONICS, published 2016).

B1: MV-15 anti-c-Met/anti-VEGF bispecific antibody (bispecific antibody, human IgG2, kappa)
heavy: EVQLVESGGGLVQPGGSLRLSCAASGFTFTDYYMSWVRQAPGKGLEWLGFIRNKANGYTTEYSASVKGRFTISRDNSKNTLYLQMNSLRAEDTAVYYCARDNWFAYWGQGTLVTVSSASTKGPSVFPLAPCSRSTSESTAALGCLVKDYFPEPVTVSWNSGALTSGVHTFPAVLQSSGLYSLSSVVTVPSSNFGTQTYTCNVDHKPSNTKVDKTVERKCCVECPPCPAPPVAGPSVFLFPPKPKDTLMISRTPEVTCVVVDVSHEDPEVQFNWYVDGVEVHNAKTKPREEQFNSTFRVVSVLTVVHQDWLNGKEYKCKVSNKGLPAPIEKTISKTKGQPREPQVYTLPPSREEMTKNQVSLTCLVKGFYPSDIAVEWESNGQPENNYKTTPPMLDSDGSFFLYSKLTVDKSRWQQGNVFSCSVMHEALHNHYTQKSLSLSPGKGGGGSGGGGSEVQLLESGGGLVQPGGSLRLSCAASGFTFSGYAMSWVRQAPGKGLEWVSSIYSSSGSKYYADSVKGRFTISRDNSKNTLYLQMNSLRAEDTAVYYCARASSTCTRTWCSYDDAMDVWGQGTLVTVSSGGGGSGGGGSGGGGSQSVLTQPPSASGTPGQRVTISCTGSSSNIGNNAVTWYQQLPGTAPKLLIYDDSHRPSGVPDRFSGSKSGTSASLAISGLRSEDEADYYCGTWDYSLSGYVFGGGTKLTVLG
light: DIQMTQSPSSLSASVGDRVTITCKSSQSLLASGNQNNYLAWYQQKPGKAPKMLIIWASTRVSGVPSRFSGSGSGTDFTLTISSLQPEDFATYYCQQSYSRPYTFGQGTKVEIKRTVAAPSVFIFPPSDEQLKSGTASVVCLLNNFYPREAKVQWKVDNALQSGNSQESVTEQDSKDSTYSLSSTLTLSKADYEKHKVYACEVTHQGLSSPVTKSFNRGEC
notes: This is an inference
B2: MV-16 anti-c-Met/anti-VEGF bispecific antibody (bispecific antibody, human IgG2, kappa)
heavy: EVQLVESGGGLVQPGGSLRLSCAASGFTFTDYYMSWVRQAPGKGLEWLGFIRNKANGYTTEYSASVKGRFTISRDNSKNTLYLQMNSLRAEDTAVYYCARDNWFAYWGQGTLVTVSSASTKGPSVFPLAPCSRSTSESTAALGCLVKDYFPEPVTVSWNSGALTSGVHTFPAVLQSSGLYSLSSVVTVPSSNFGTQTYTCNVDHKPSNTKVDKTVERKCCVECPPCPAPPVAGPSVFLFPPKPKDTLMISRTPEVTCVVVDVSHEDPEVQFNWYVDGVEVHNAKTKPREEQFNSTFRVVSVLTVVHQDWLNGKEYKCKVSNKGLPAPIEKTISKTKGQPREPQVYTLPPSREEMTKNQVSLTCLVKGFYPSDIAVEWESNGQPENNYKTTPPMLDSDGSFFLYSKLTVDKSRWQQGNVFSCSVMHEALHNHYTQKSLSLSPGKGGGGSGGGGSEVQLLESGGGLVQTGGSLRLSCAASGFTFSDYAMSWVRQAPGKGLEWVSSIYPGSGSKYYADSVKGRFAISRDNSKNTLYLQMNSLRAEDTAVYYCARDAWFRGHNVFDYWGQGTLVTVSSGGGGSGGGGSGGGGSQSVLTQPPSASGTPGQRVTISCTGSSSNIGSNNVTWYQQLPGTAPKLLIYSDSHRPSGVPDRFSGSKSGTSASLAISGLQSEDEADYYCGSWDYSLSAYVFGGGTKLTVLG
light: B1 light
B3: MV-17 anti-c-Met/anti-VEGF bispecific antibody (bispecific antibody, human IgG2, kappa)
heavy: EVQLVESGGGLVQPGGSLRLSCAASGFTFTDYYMSWVRQAPGKGLEWLGFIRNKANGYTTEYSASVKGRFTISRDNSKNTLYLQMNSLRAEDTAVYYCARDNWFAYWGQGTLVTVSSASTKGPSVFPLAPCSRSTSESTAALGCLVKDYFPEPVTVSWNSGALTSGVHTFPAVLQSSGLYSLSSVVTVPSSNFGTQTYTCNVDHKPSNTKVDKTVERKCCVECPPCPAPPVAGPSVFLFPPKPKDTLMISRTPEVTCVVVDVSHEDPEVQFNWYVDGVEVHNAKTKPREEQFNSTFRVVSVLTVVHQDWLNGKEYKCKVSNKGLPAPIEKTISKTKGQPREPQVYTLPPSREEMTKNQVSLTCLVKGFYPSDIAVEWESNGQPENNYKTTPPMLDSDGSFFLYSKLTVDKSRWQQGNVFSCSVMHEALHNHYTQKSLSLSPGKGGGGSGGGGSEVQLLESGGGLVQPGGSLRLSCAASGFTFSNYDMSWVRQAPGKGLEWVSGIYPNGGSKYYADSVKGRFTISRDNSKNTLYLQMNSLRAEDTAVYYCARALRQCQRYWCSYADGMDVWGQGTLVTVSSGGGGSGGGGSGGGGSQSVLTQPPSASGTPGQRVTISCTGSSSNIGSNYVSWYQQLPGTAPKLLIYADSQRPSGVPDRFSGSKSGTSASLAISGLRSEDEADYYCGTWDYSLSGYVLGGGTKLTVLG
light: B1 light
B4: MV-21 anti-c-Met/anti-VEGF bispecific antibody (bispecific antibody, human IgG2, kappa)
heavy: EVQLVESGGGLVQPGGSLRLSCAASGFTFTDYYMSWVRQAPGKGLEWLGFIRNKANGYTTEYSASVKGRFTISRDNSKNTLYLQMNSLRAEDTAVYYCARDNWFAYWGQGTLVTVSSASTKGPSVFPLAPCSRSTSESTAALGCLVKDYFPEPVTVSWNSGALTSGVHTFPAVLQSSGLYSLSSVVTVPSSNFGTQTYTCNVDHKPSNTKVDKTVERKCCVECPPCPAPPVAGPSVFLFPPKPKDTLMISRTPEVTCVVVDVSHEDPEVQFNWYVDGVEVHNAKTKPREEQFNSTFRVVSVLTVVHQDWLNGKEYKCKVSNKGLPAPIEKTISKTKGQPREPQVYTLPPSREEMTKNQVSLTCLVKGFYPSDIAVEWESNGQPENNYKTTPPMLDSDGSFFLYSKLTVDKSRWQQGNVFSCSVMHEALHNHYTQKSLSLSPGKGGGGSGGGGSEVQLLESGGGLVQPGGSLRLSCAASGFTFSGYAMSWVRQAPGKGLEWVSGISHDGGNTYYADSVKGRFTISRDNSKNTLYLQMNSLRAEDTAVYYCARDRRKGPSTEFDYWGQGTLVTVSSGGGGSGGGGSGGGGSQSVLTQPPSLSGTPGQRVTISCTGSSSNIGSNSVSWYQQLPGTAPKLLIYDDNNRPSGVPDRFSGSKSGTSASLAISGLRSEDEADYYCGAWDYSLSAYVFGGGTKLTVLG
light: B1 light
B5: MV-19 anti-c-Met/anti-VEGF bispecific antibody (bispecific antibody, human IgG2, kappa)
heavy: EVQLVESGGGLVQPGGSLRLSCAASGFTFTDYYMSWVRQAPGKGLEWLGFIRNKANGYTTEYSASVKGRFTISRDNSKNTLYLQMNSLRAEDTAVYYCARDNWFAYWGQGTLVTVSSASTKGPSVFPLAPCSRSTSESTAALGCLVKDYFPEPVTVSWNSGALTSGVHTFPAVLQSSGLYSLSSVVTVPSSNFGTQTYTCNVDHKPSNTKVDKTVERKCCVECPPCPAPPVAGPSVFLFPPKPKDTLMISRTPEVTCVVVDVSHEDPEVQFNWYVDGVEVHNAKTKPREEQFNSTFRVVSVLTVVHQDWLNGKEYKCKVSNKGLPAPIEKTISKTKGQPREPQVYTLPPSREEMTKNQVSLTCLVKGFYPSDIAVEWESNGQPENNYKTTPPMLDSDGSFFLYSKLTVDKSRWQQGNVFSCSVMHEALHNHYTQKSLSLSPGKGGGGSGGGGSEVQLLESGGGLVQPGGSLRLSCAASGFTFSSYSMSWVRQAPGKGLEWVSGISHGGGNKYYADSVKGRFTISRDNSKNTLYLQMNSLRAEDTAVYYCARDLRANNDTGFDYWGQGTLVTVSSGGGGSGGGGSGGGGTQSVLTQPPSSSGTPGQRVTISCTGSSSNIGSNAVTWYQQLPGTAPKLLIYDDNHRPSGVPDRFSGSKSGTSASLAISGLRSEDEADYYCGAWDYSLNAYVFGGGTKLTVLG
light: B1 light
B6: MV-20 anti-c-Met/anti-VEGF bispecific antibody (bispecific antibody, human IgG2, kappa)
heavy: EVQLVESGGGLVQPGGSLRLSCAASGFTFTDYYMSWVRQAPGKGLEWLGFIRNKANGYTTEYSASVKGRFTISRDNSKNTLYLQMNSLRAEDTAVYYCARDNWFAYWGQGTLVTVSSASTKGPSVFPLAPCSRSTSESTAALGCLVKDYFPEPVTVSWNSGALTSGVHTFPAVLQSSGLYSLSSVVTVPSSNFGTQTYTCNVDHKPSNTKVDKTVERKCCVECPPCPAPPVAGPSVFLFPPKPKDTLMISRTPEVTCVVVDVSHEDPEVQFNWYVDGVEVHNAKTKPREEQFNSTFRVVSVLTVVHQDWLNGKEYKCKVSNKGLPAPIEKTISKTKGQPREPQVYTLPPSREEMTKNQVSLTCLVKGFYPSDIAVEWESNGQPENNYKTTPPMLDSDGSFFLYSKLTVDKSRWQQGNVFSCSVMHEALHNHYTQKSLSLSPGKGGGGSGGGGSEVQLLESGGGLVQPGGSLRLSCAASGFTFSNYDMSWVRQAPGKGLEWVSLISHGGGNIYYADSVKGRFTISRDNSKNTLYLQMNSLRAEDTAVYYCARVPVMCTNHWCSYANGMDVWGQGTLVTVSSGGGGSGGGGSGGGGSQSVLTQPPSASGTPGQRVIISCSASSSNIGSNAVYWYQQLPGTAPKLLIYSDNQRPSGVPDRFSGSKSGTSASLAISGLRSEDEADYYCGSWDYSLSAYVFGGGTKLTVLG
light: B1 light
B7: MV-18 anti-c-Met/anti-VEGF bispecific antibody (bispecific antibody, human IgG2, kappa)
heavy: EVQLVESGGGLVQPGGSLRLSCAASGFTFTDYYMSWVRQAPGKGLEWLGFIRNKANGYTTEYSASVKGRFTISRDNSKNTLYLQMNSLRAEDTAVYYCARDNWFAYWGQGTLVTVSSASTKGPSVFPLAPCSRSTSESTAALGCLVKDYFPEPVTVSWNSGALTSGVHTFPAVLQSSGLYSLSSVVTVPSSNFGTQTYTCNVDHKPSNTKVDKTVERKCCVECPPCPAPPVAGPSVFLFPPKPKDTLMISRTPEVTCVVVDVSHEDPEVQFNWYVDGVEVHNAKTKPREEQFNSTFRVVSVLTVVHQDWLNGKEYKCKVSNKGLPAPIEKTISKTKGQPREPQVYTLPPSREEMTKNQVSLTCLVKGFYPSDIAVEWESNGQPENNYKTTPPMLDSDGSFFLYSKLTVDKSRWQQGNVFSCSVMHEALHNHYTQKSLSLSPGKGGGGSGGGGSEVQLLESGGGLVQPGGSLRLSCAASGFTFSDYYMSWVRQAPGKGLEWVSAIYSGGGSIYYADSVKGRFTISRDNSKNTLYLQMNSLRAEDTAVYYCARDVQWNKAPRFDYWGQGTLVTVSSGGGGSGGGGSGGGGSQSVLTQPPSASGAPGQRVTISCSGSSSNIGSNDVSWYQQLPGTAPKLLIYADSNRPSGVPDRFSGSKSGTSASLAISGLRSEDEADYYCGSWDYSLSGYVFGGGTKLTVLG
light: B1 light

Target: VEGF (R&D systems) (UniProt P15692-4 27-191, limits assumed)
Sequence (P15692 other isoform, or with tags, fused parts or gaps limits assumed): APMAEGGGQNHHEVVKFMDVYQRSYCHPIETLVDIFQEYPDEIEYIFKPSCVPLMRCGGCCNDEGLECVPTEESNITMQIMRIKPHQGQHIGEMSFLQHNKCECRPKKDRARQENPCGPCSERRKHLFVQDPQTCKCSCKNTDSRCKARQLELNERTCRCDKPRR
Assay: SPR (Biacore T100), CM5 chip, VEGF; format unclear in the text
Experimental: An examination on whether the 8 anti-c-Met/anti-VEGF bispecific antibodies prepared in Example 2 maintains binding affinity to VEGF was conducted using Biacore T100(GE). VEGF (R&D systems) immobilized on the surface of CM5 chip (#BR-1005-30, GE) by amino coupling according to the manufacturer's instructions. About 90˜120 RU of the anti-c-Met/anti-VEGF bispecific antibody was captured, and […] was injected thereto at various concentrations. Then, a solution containing 1M NaCl and 5 mM NaOH was injected thereto to regenerate the surface. The obtained data were fitted using BlAevaluation software (GE Healthcare, Biacore T100 evaluation software), to measure the binding affinity to VEGF.

Binder	Kd [nM]
B1	6.83
B2	14.8
B3	5.76
B4	8.27
B5	1
B6	4.43
B7	4.23

Target: T1, human c-Met/Fc fusion protein (R&D Systems) (human, UniProt P08581 25-932)
T1 construct: Bought reagent; also called c-Met-Fc (#358-MT/CF, R&D Systems); human c-Met/Fc protein; not shown: Fc part of the bought fusion protein
T1 sequence (P08581 25-932 limits assumed): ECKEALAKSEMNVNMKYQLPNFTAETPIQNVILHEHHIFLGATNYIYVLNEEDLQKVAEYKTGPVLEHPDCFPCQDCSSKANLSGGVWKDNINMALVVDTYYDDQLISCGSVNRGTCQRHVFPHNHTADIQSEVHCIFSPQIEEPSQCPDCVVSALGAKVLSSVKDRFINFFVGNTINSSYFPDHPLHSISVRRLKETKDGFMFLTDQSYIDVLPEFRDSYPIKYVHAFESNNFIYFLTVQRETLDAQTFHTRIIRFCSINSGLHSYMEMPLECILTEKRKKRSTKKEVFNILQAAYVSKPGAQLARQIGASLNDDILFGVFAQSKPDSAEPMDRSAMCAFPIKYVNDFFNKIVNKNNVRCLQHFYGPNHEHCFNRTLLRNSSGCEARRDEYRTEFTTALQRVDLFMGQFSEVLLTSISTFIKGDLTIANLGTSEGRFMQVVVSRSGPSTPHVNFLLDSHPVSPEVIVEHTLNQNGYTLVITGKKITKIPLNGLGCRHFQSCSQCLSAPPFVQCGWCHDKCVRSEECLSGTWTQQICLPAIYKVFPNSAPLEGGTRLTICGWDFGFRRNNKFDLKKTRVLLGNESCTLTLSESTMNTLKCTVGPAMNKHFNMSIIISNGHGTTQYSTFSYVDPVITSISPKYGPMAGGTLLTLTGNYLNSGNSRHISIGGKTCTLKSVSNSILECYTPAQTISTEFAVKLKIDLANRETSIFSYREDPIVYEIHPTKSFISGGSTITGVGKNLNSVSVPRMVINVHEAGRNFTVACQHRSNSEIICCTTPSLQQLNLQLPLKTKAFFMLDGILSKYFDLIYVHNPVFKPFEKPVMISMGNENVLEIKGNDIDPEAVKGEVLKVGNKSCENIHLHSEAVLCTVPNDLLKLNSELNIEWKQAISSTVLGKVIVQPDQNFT
Assay: SPR (Biacore T100), bispecific captured by human Fab binder on CM5 chip, c-Met-Fc injected
Experimental: An examination on whether the anti-c-Met/anti-VEGF bispecific antibody maintains binding affinity to c-Met was conducted using Biacore T100(GE). A human Fab binding agent (GE Healthcare) was immobilized onto a CM5 chip (#BR-1005-30, GE) according to the manufacturer's instructions. About 90˜120 RU of the anti-c-Met/anti-VEGF bispecific antibody was captured, and c-Met-Fc (#358-MT/CF, R&D Systems) was injected thereto at various concentrations. Then, 10 mM Glycine-HCl (pH 2.1) solution was injected thereto to regenerate the surface. The obtained data were fitted using BlAevaluation software (GE Healthcare, Biacore T100 evaluation software), to measure the binding affinity to c-Met.

Binder	Kd [nM]
B1	0.1
B2	0.21
B3	0.09
B4	0.04
B5	0.3
B6	0.04
B7	0.05
